Experimental data reported in publication PMC11739650 (Communications Biology, 2025).
“And” between values parts separate entries of the source, which are not always exact repeats. Identical values can stand only once.

B1: FliF(G217A) (natural protein, Salmonella enterica serovar Typhimurium)
chain: MSATASTATQPKPLEWLNRLRANPRIPLIVAGSAAVAIVVAMVLWAKTPDYRTLFSNLSDQDGGAIVAQLTQMNIPYRFANGSGAIEVPADKVHELRLRLAQQGLPKGGAVGFELLDQEKFGISQFSEQVNYQRALEGELARTIETLGPVKSARVHLAMPKPSLFVREQKSPSASVTVTLEPGRALDEGQISAVVHLVSSAVAGLPPGNVTLVDQSAHLLTQSNTSGRDLNDAQLKFANDVESRIQRRIEAILSPIVGNGNVHAQVTAQLDFANKEQTEEHYSPNGDASKATLRSRQLNISEQVGAGYPGGVPGALSNQPAPPNEAPIATPPTNQQNAQNTPQTSTSTNSNSAGPRSTQRNETSNYEVDRTIRHTKMNVGDIERLSVAVVVNYKTLADGKPLPLTADQMKQIEDLTREAMGFSDKRGDTLNVVNSPFSAVDNTGGELPFWQQQSFIDQLLAAGRWLLVLVVAWILWRKAVRPQLTRRVEEAKAAQEQAQVRQETEEAVEVRLSKDEQLQQRRANQRLGAEVMSQRIREMSDNDPRVVALVIRQWMSNDHE
B2: FliF(G217W) (natural protein, Salmonella enterica serovar Typhimurium)
chain: MSATASTATQPKPLEWLNRLRANPRIPLIVAGSAAVAIVVAMVLWAKTPDYRTLFSNLSDQDGGAIVAQLTQMNIPYRFANGSGAIEVPADKVHELRLRLAQQGLPKGGAVGFELLDQEKFGISQFSEQVNYQRALEGELARTIETLGPVKSARVHLAMPKPSLFVREQKSPSASVTVTLEPGRALDEGQISAVVHLVSSAVAGLPPGNVTLVDQSWHLLTQSNTSGRDLNDAQLKFANDVESRIQRRIEAILSPIVGNGNVHAQVTAQLDFANKEQTEEHYSPNGDASKATLRSRQLNISEQVGAGYPGGVPGALSNQPAPPNEAPIATPPTNQQNAQNTPQTSTSTNSNSAGPRSTQRNETSNYEVDRTIRHTKMNVGDIERLSVAVVVNYKTLADGKPLPLTADQMKQIEDLTREAMGFSDKRGDTLNVVNSPFSAVDNTGGELPFWQQQSFIDQLLAAGRWLLVLVVAWILWRKAVRPQLTRRVEEAKAAQEQAQVRQETEEAVEVRLSKDEQLQQRRANQRLGAEVMSQRIREMSDNDPRVVALVIRQWMSNDHE
B3: FliF(G217P) (natural protein, Salmonella enterica serovar Typhimurium)
chain: MSATASTATQPKPLEWLNRLRANPRIPLIVAGSAAVAIVVAMVLWAKTPDYRTLFSNLSDQDGGAIVAQLTQMNIPYRFANGSGAIEVPADKVHELRLRLAQQGLPKGGAVGFELLDQEKFGISQFSEQVNYQRALEGELARTIETLGPVKSARVHLAMPKPSLFVREQKSPSASVTVTLEPGRALDEGQISAVVHLVSSAVAGLPPGNVTLVDQSPHLLTQSNTSGRDLNDAQLKFANDVESRIQRRIEAILSPIVGNGNVHAQVTAQLDFANKEQTEEHYSPNGDASKATLRSRQLNISEQVGAGYPGGVPGALSNQPAPPNEAPIATPPTNQQNAQNTPQTSTSTNSNSAGPRSTQRNETSNYEVDRTIRHTKMNVGDIERLSVAVVVNYKTLADGKPLPLTADQMKQIEDLTREAMGFSDKRGDTLNVVNSPFSAVDNTGGELPFWQQQSFIDQLLAAGRWLLVLVVAWILWRKAVRPQLTRRVEEAKAAQEQAQVRQETEEAVEVRLSKDEQLQQRRANQRLGAEVMSQRIREMSDNDPRVVALVIRQWMSNDHE
B4: FliF(∆165–167) (natural protein, Salmonella enterica serovar Typhimurium)
chain: MSATASTATQPKPLEWLNRLRANPRIPLIVAGSAAVAIVVAMVLWAKTPDYRTLFSNLSDQDGGAIVAQLTQMNIPYRFANGSGAIEVPADKVHELRLRLAQQGLPKGGAVGFELLDQEKFGISQFSEQVNYQRALEGELARTIETLGPVKSARVHLAMPKPSLEQKSPSASVTVTLEPGRALDEGQISAVVHLVSSAVAGLPPGNVTLVDQSGHLLTQSNTSGRDLNDAQLKFANDVESRIQRRIEAILSPIVGNGNVHAQVTAQLDFANKEQTEEHYSPNGDASKATLRSRQLNISEQVGAGYPGGVPGALSNQPAPPNEAPIATPPTNQQNAQNTPQTSTSTNSNSAGPRSTQRNETSNYEVDRTIRHTKMNVGDIERLSVAVVVNYKTLADGKPLPLTADQMKQIEDLTREAMGFSDKRGDTLNVVNSPFSAVDNTGGELPFWQQQSFIDQLLAAGRWLLVLVVAWILWRKAVRPQLTRRVEEAKAAQEQAQVRQETEEAVEVRLSKDEQLQQRRANQRLGAEVMSQRIREMSDNDPRVVALVIRQWMSNDHE
B5: FliF(∆214–220) (natural protein, Salmonella enterica serovar Typhimurium)
chain: MSATASTATQPKPLEWLNRLRANPRIPLIVAGSAAVAIVVAMVLWAKTPDYRTLFSNLSDQDGGAIVAQLTQMNIPYRFANGSGAIEVPADKVHELRLRLAQQGLPKGGAVGFELLDQEKFGISQFSEQVNYQRALEGELARTIETLGPVKSARVHLAMPKPSLFVREQKSPSASVTVTLEPGRALDEGQISAVVHLVSSAVAGLPPGNVTLVTQSNTSGRDLNDAQLKFANDVESRIQRRIEAILSPIVGNGNVHAQVTAQLDFANKEQTEEHYSPNGDASKATLRSRQLNISEQVGAGYPGGVPGALSNQPAPPNEAPIATPPTNQQNAQNTPQTSTSTNSNSAGPRSTQRNETSNYEVDRTIRHTKMNVGDIERLSVAVVVNYKTLADGKPLPLTADQMKQIEDLTREAMGFSDKRGDTLNVVNSPFSAVDNTGGELPFWQQQSFIDQLLAAGRWLLVLVVAWILWRKAVRPQLTRRVEEAKAAQEQAQVRQETEEAVEVRLSKDEQLQQRRANQRLGAEVMSQRIREMSDNDPRVVALVIRQWMSNDHE
B6: FliF(∆221–227) (natural protein, Salmonella enterica serovar Typhimurium)
chain: MSATASTATQPKPLEWLNRLRANPRIPLIVAGSAAVAIVVAMVLWAKTPDYRTLFSNLSDQDGGAIVAQLTQMNIPYRFANGSGAIEVPADKVHELRLRLAQQGLPKGGAVGFELLDQEKFGISQFSEQVNYQRALEGELARTIETLGPVKSARVHLAMPKPSLFVREQKSPSASVTVTLEPGRALDEGQISAVVHLVSSAVAGLPPGNVTLVDQSGHLLRDLNDAQLKFANDVESRIQRRIEAILSPIVGNGNVHAQVTAQLDFANKEQTEEHYSPNGDASKATLRSRQLNISEQVGAGYPGGVPGALSNQPAPPNEAPIATPPTNQQNAQNTPQTSTSTNSNSAGPRSTQRNETSNYEVDRTIRHTKMNVGDIERLSVAVVVNYKTLADGKPLPLTADQMKQIEDLTREAMGFSDKRGDTLNVVNSPFSAVDNTGGELPFWQQQSFIDQLLAAGRWLLVLVVAWILWRKAVRPQLTRRVEEAKAAQEQAQVRQETEEAVEVRLSKDEQLQQRRANQRLGAEVMSQRIREMSDNDPRVVALVIRQWMSNDHE
B7: FliF (flagellar MS-ring protein), wild type (natural protein, Salmonella enterica serovar Typhimurium, UniProt P15928 1-560, looked up)
chain: MSATASTATQPKPLEWLNRLRANPRIPLIVAGSAAVAIVVAMVLWAKTPDYRTLFSNLSDQDGGAIVAQLTQMNIPYRFANGSGAIEVPADKVHELRLRLAQQGLPKGGAVGFELLDQEKFGISQFSEQVNYQRALEGELARTIETLGPVKSARVHLAMPKPSLFVREQKSPSASVTVTLEPGRALDEGQISAVVHLVSSAVAGLPPGNVTLVDQSGHLLTQSNTSGRDLNDAQLKFANDVESRIQRRIEAILSPIVGNGNVHAQVTAQLDFANKEQTEEHYSPNGDASKATLRSRQLNISEQVGAGYPGGVPGALSNQPAPPNEAPIATPPTNQQNAQNTPQTSTSTNSNSAGPRSTQRNETSNYEVDRTIRHTKMNVGDIERLSVAVVVNYKTLADGKPLPLTADQMKQIEDLTREAMGFSDKRGDTLNVVNSPFSAVDNTGGELPFWQQQSFIDQLLAAGRWLLVLVVAWILWRKAVRPQLTRRVEEAKAAQEQAQVRQETEEAVEVRLSKDEQLQQRRANQRLGAEVMSQRIREMSDNDPRVVALVIRQWMSNDHE

Molecular target: the molecule itself
Experiment: negative-stain electron microscopy

Protein | binding result
B1 | binds
B2 | binds
B3 | binds
B4 | binds
B5 | binds
B6 | binds

Molecular target: the molecule itself
Experiment: cryo-EM structure

Protein | stoichiometry N
B7 | 33 and 34
